Legend:
[1] = test system: 3H-wt AAV-2; experiment: Inhibition of 3H-wt AAV-2 binding to HeLa cells by soluble GAGs; conditions: 30 μg/ml, 90 min at 4° C.
Description: FIG. 2 illustrates that soluble heparin inhibits binding of AAV to the cell surface. After pre-incubation of 3H-wt AAV-2 with increasing concentrations of the indicated GAGs or the GAG analogue dextran sulfate, labeled virus was adsorbed to HeLa cells for 90 minutes at 4° C. Unbound virus was removed by three washes with ice cold binding buffer and radioactivity was quantitated as described in methods. Data is represented as the average % inhibition relative to the CPM bound in the absence of soluble GAG.
(§1) For direct binding assays, ^3H-labeled wtAAV-2 was incubated with cells either attached to plates or in suspension, as indicated, at a ratio of 4×10^11 particles/3×10^5 cells for 90 minutes at 4° C. in HBSB. Cells were then washed 3 times in ice cold HBSB to remove unbound virus, and were solubilized in 0.3 N NaOH. After neutralization with glacial acetic acid, cell-associated radioactivity was quantitated in a scintillation counter. For inhibition studies, and after enzymatic treatments, ^3H-AAV was bound to adherent HeLa cells. Binding to wild type CHO and CHO cell mutants was done with suspended cells. […] Non-specific binding was determined in the presence of 100-fold excess unlabeled wt AAV (previously dialyzed in HBS, 10% glycerol). Binding of Cy3-labeled virus was done on wild type CHO and pgsA-745 cells grown on coverslips. After fixation in 4% paraformaldehyde for 20 minutes at room temperature, cells were mounted on slides and bound Cy3 labeled virus was detected by confocal microscopy. […]
To further examine the observed specificity and to determine whether GAGs were inhibiting binding of the AAV virions to the cell surface, ^3H-wt AAV was incubated with GAGs (heparin, dermatan sulfate, chondroitin sulfate A, chondroitin sulfate C, dextran sulfate) at various concentrations. After incubation with cells, the mixture was washed and cells were solubilized to quantify bound virus. […]

[2] = test system: rAAV-LacZ; experiment: Inhibition of rAAV-LacZ transduction of HeLa cells by soluble GAGs; type: cell-based, AAV-2; conditions: 30 μg/ml GAG; HeLa cells; 44 h post-infection
Description: FIGS. 1A and 1B illustrate the inhibition of AAV infection by various glycosaminoglycans. In the data shown in FIG. 1A, rAAV was incubated with the indicated concentrations of heparin (solid squares), chondroitin sulfate B (dermatan sulfate) (open circles), chondroitin sulfate A (open diamonds) or chondroitin sulfate C (open triangles) for 1 hour at 37° C. prior to a 1-hour adsorption period of the virus/GAG mixture to HeLa cells for infection. β-galactosidase activity was assayed 44 hours post-infection using a Galacto-Light Plus kit (Tropix Inc.), and measured in a luminometer. Each point denotes the average % decrease in Relative Light Units (RLU) per ug of protein relative to the maximum RLU/μg protein obtained in experiments without GAG. In the data shown in FIG. 1B, HeLa cells were preincubated with increasing concentrations of heparin at 37° C. for 1 hour. After thorough washing, cells were infected with rAAV as described above. Data points represent the average % maximum RLU/ug protein obtained without heparin preincubation.
rAAV-LacZ at an MOI of 2 was incubated in DMEM-H media in the presence or absence of indicated soluble GAGs at 1.0, 5.0, 10, 20, 30 μg/ml for 1 h at 37° C. For infection, rAAV-LacZ or the virus/GAG mixture was incubated with 2×10^5 HeLa cells for 1 h at 37° C. in a 5% CO2 chamber. […]

[3] = test system: cell surface glycosaminoglycans of HeLa cells; experiment: 3H-AAV binding to HeLa cells after GAG lyase digestion of cell surface GAGs; conditions: maximum concentration of enzyme tested
Description: (§2) FIGS. 3A and 3B illustrate the effect of enzymatic digestion of cell surface glycosaminoglycans on AAV binding and infection. In the data shown in FIG. 3A, HeLa cells were treated with the indicated concentrations of the following GAG lyases: heparitinase (solid squares), heparinase I (open diamonds), chondroitinase ABC (open circles), or chondroitinase AC (open triangles), as described in Example 13, below. After thorough washing, the ability of AAV to bind the cell surface was assessed as described in Example 12, below. Data points represent the average % reduction in AAV binding relative to AAV binding obtained without enzymatic treatment. In the data shown in FIG. 3B, HeLa cells were treated with heparitinase or heparinase I as described herein. After thorough washing, rAAV was incubated with cells for a I hour adsorption period at 37° C. Cells were harvested 44 hours post-infection and assayed for β-galactosidase activity. Results are shown as the average % reduction in AAV transduction relative to transduction observed in the absence of enzymatic treatment. Data points represent the mean and standard deviation of experiments performed in triplicate.
as §1
GAG lyases were reconstituted in phosphate buffered saline (PBS). […] Prior to use, each enzyme was tested for activity by a standard method used to determine specific activity of GAG lyases, except that enzyme activity was monitored under the conditions used for digestion, PBS pH 7.4 at 37° C. […]
Subconfluent HeLa cells were treated with various concentrations of each specific enzyme and assessed for ^3H-AAV binding.

[4] = test system: cell surface glycosaminoglycans of HeLa cells; experiment: rAAV-LacZ transduction of HeLa cells after GAG lyase digestion; type: cell-based; conditions: for reduction of rAAV transduction compared to untreated control cells: HeLa cells treated with various concentrations of enzyme
Description: as §2
GAG lyases were reconstituted in phosphate buffered saline (PBS). For enzymatic digestion of cell surface GAGs, 3×10^4 HeLa cells were washed and incubated with the indicated concentrations of GAG lyases in PBS containing 0.1%BSA, 0.2% gelatin and 0.1% glucose (digestion buffer) for 1 hour at 37° C. in a 5% CO2 chamber. Cells were then washed four times with digestion buffer and subjected to rAAV infection as described above. Prior to use, each enzyme was tested for activity by a standard method used to determine specific activity of GAG lyases, except that enzyme activity was monitored under the conditions used for digestion, PBS pH 7.4 at 37° C. (Linhardt, (1994) Analysis of glycosaminoglycans with polysaccharide lyases, p. 17.13.17-17.13.32. in K. Janssen (ed.), Current Protocols in Molecular Biology, vol. 3. John Wiley & Sons, Inc., New York). Cells remained attached to the plate after all enzymatic treatments. […]

chondroitin sulfate B
inhibition of AAV binding [1]: 51%
inhibition of rAAV transduction (β-galactosidase activity) [2]: 71%

chondroitinase ABC
reduction of 3H-AAV binding to the cell surface after enzymatic treatment [3]: did not result in any reduction

dextran sulfate
inhibition of AAV binding [1]: 36%

B1: heparinase: GAG lyase purchased from Sigma; cleaves linkages found in heparan sulfate (protein, UniProt Q05819 22-384, looked up)
Heparin lyase I: QQKKSGNIPYRVNVQADSAKQKAIIDNKWVAVGINKPYALQYDDKLRFNGKPSYRFELKAEDNSLEGYAAGETKGRTELSYSYATTNDFKKFPPSVYQNAQKLKTVYHYGKGICEQGSSRSYTFSVYIPSSFPDNATTIFAQWHGAPSRTLVATPEGEIKTLSIEEFLALYDRMIFKKNIAHDKVEKKDKDGKITYVAGKPNGWKVEQGGYPTLAFGFSKGYFYIKANSDRQWLTDKADRNNANPENSEVMKPYSSEYKTSTIAYKMPFAQFPKDCWITFDVAIDWTKYGKEANTILKPGKLDVMMTYTKNKKPQKAHIVNQQEILIGRNDDDGYYFKFGIYRVGNSTVPVTYNLSGYSETAR
reduction of 3H-AAV binding to the cell surface after enzymatic treatment [3]: 66%
reduction of rAAV transduction compared to untreated control cells [4]: 80%

B2: chondroitinase AC: GAG lyase from Seikagagku; cleaves only chondroitin sulfate type A and C (protein, UniProt Q59288 23-700, looked up)
Chondroitinase-AC: QQTGTAELIMKRVMLDLKKPLRNMDKVAEKNLNTLQPDGSWKDVPYKDDAMTNWLPNNHLLQLETIIQAYIEKDSHYYGDDKVFDQISKAFKYWYDSDPKSRNWWHNEIATPQALGEMLILMRYGKKPLDEALVHKLTERMKRGEPEKKTGANKTDIALHYFYRALLTSDEALLSFAVKELFYPVQFVHYEEGLQYDYSYLQHGPQLQISSYGAVFITGVLKLANYVRDTPYALSTEKLAIFSKYYRDSYLKAIRGSYMDFNVEGRGVSRPDILNKKAEKKRLLVAKMIDLKHTEEWADAIARTDSTVAAGYKIEPYHHQFWNGDYVQHLRPAYSFNVRMVSKRTRRSESGNKENLLGRYLSDGATNIQLRGPEYYNIMPVWEWDKIPGITSRDYLTDRPLTKLWGEQGSNDFAGGVSDGVYGASAYALDYDSLQAKKAWFFFDKEIVCLGAGINSNAPENITTTLNQSWLNGPVISTAGKTGRGKITTFKAQGQFWLLHDAIGYYFPEGANLSLSTQSQKGNWFHINNSHSKDEVSGDVFKLWINHGARPENAQYAYIVLPGINKPEEIKKYNGTAPKVLANTNQLQAVYHQQLDMVQAIFYTAGKLSVAGIEIETDKPCAVLIKHINGKQVIWAADPLQKEKTAVLSIRDLKTGKTNRVKIDFPQQEFAGATVELK
reduction of 3H-AAV binding to the cell surface after enzymatic treatment [3]: did not result in any reduction

B3: heparitinase: GAG lyase purchased from Sigma; cleaves linkages found in heparan sulfate (protein, UniProt Q59289 25-659, looked up)
Heparin-sulfate lyase: QSSSITRKDFDHINLEYSGLEKVNKAVAAGNYDDAAKALLAYYREKSKAREPDFSNAEKPADIRQPIDKVTREMADKALVHQFQPHKGYGYFDYGKDINWQMWPVKDNEVRWQLHRVKWWQAMALVYHATGDEKYAREWVYQYSDWARKNPLGLSQDNDKFVWRPLEVSDRVQSLPPTFSLFVNSPAFTPAFLMEFLNSYHQQADYLSTHYAEQGNHRLFEAQRNLFAGVSFPEFKDSPRWRQTGISVLNTEIKKQVYADGMQFELSPIYHVAAIDIFLKAYGSAKRVNLEKEFPQSYVQTVENMIMALISISLPDYNTPMFGDSWITDKNFRMAQFASWARVFPANQAIKYFATDGKQGKAPNFLSKALSNAGFYTFRSGWDKNATVMVLKASPPGEFHAQPDNGTFELFIKGRNFTPDAGVFVYSGDEAIMKLRNWYRQTRIHSTLTLDNQNMVITKARQNKWETGNNLDVLTYTNPSYPNLDHQRSVLFINKKYFLVIDRAIGEATGNLGVHWQLKEDSNPVFDKTKNRVYTTYRDGNNLMIQSLNADRTSLNEEEGKVSYVYNKELKRPAFVFEKPKKNAGTQNFVSIVYPYDGQKAPEISIRENKGNDFEKGKLNLTLTINGKQQLVLVP
reduction of 3H-AAV binding to the cell surface after enzymatic treatment [3]: 73%
reduction of AAV infection ([4]; 0.425 mIU/ml enzyme, HeLa cells): up to 72%
reduction of rAAV transduction compared to untreated control cells [4]: 80%
